Columns and labels:
[1] = substrate: CN(CCCCCCCCCCCCN)Cc1ccccc1; assay: (§1) Activity at recombinant human MAO-A expressed in baculovirus infected BT1 cells assessed as hydrogen peroxide generation rate preincubated for 30 mins by Amplex Red assay
[2] = substrate: NCCCCCCCCCCCCNCc1ccccc1; assay: as §1
[3] = substrate: NCCCCCCCCCCCCNCc1cccs1; assay: as §1
[4] = substrate: CN(CCCCCCCCCCCCN)Cc1ccccc1; assay: (§2) Activity at recombinant human MAO-B expressed in baculovirus infected BT1 cells assessed as hydrogen peroxide generation rate preincubated for 30 mins by Amplex Red assay
[5] = substrate: NCCCCCCCCCCCCNCc1ccccc1; assay: as §2
[6] = substrate: NCCCCCCCCCCCCNCc1cccs1; assay: as §2
[7] = substrate: NCCCOCCCCOCCCNCc1cccs1; assay: as §2
[8] = substrate: CN(CCCCCCCCCCCCN)Cc1ccccc1; assay: (§3) Activity at recombinant human VAP-1 assessed as hydrogen peroxide generation rate preincubated for 30 mins by Amplex Red assay
[9] = substrate: NCCCCCCCCCCCCNCc1ccccc1; assay: as §3
[10] = substrate: NCCCCCCCCCCCCNCc1cccs1; assay: as §3
[11] = substrate: NCCCCCCCCNCCCNCc1cccs1; assay: as §3
[12] = substrate: NCCCOCCCCOCCCNCc1cccs1; assay: as §3

B1: Amine oxidase [flavin-containing] A (Homo sapiens) (protein)
chain: MENQEKASIAGHMFDVVVIGGGISGLSAAKLLTEYGVSVLVLEARDRVGGRTYTIRNEHVDYVDVGGAYVGPTQNRILRLSKELGIETYKVNVSERLVQYVKGKTYPFRGAFPPVWNPIAYLDYNNLWRTIDNMGKEIPTDAPWEAQHADKWDKMTMKELIDKICWTKTARRFAYLFVNINVTSEPHEVSALWFLWYVKQCGGTTRIFSVTNGGQERKFVGGSGQVSERIMDLLGDQVKLNHPVTHVDQSSDNIIIETLNHEHYECKYVINAIPPTLTAKIHFRPELPAERNQLIQRLPMGAVIKCMMYYKEAFWKKKDYCGCMIIEDEDAPISITLDDTKPDGSLPAIMGFILARKADRLAKLHKEIRKKKICELYAKVLGSQEALHPVHYEEKNWCEEQYSGGCYTAYFPPGIMTQYGRVIRQPVGRIFFAGTETATKWSGYMEGAVEAGERAAREVLNGLGKVTEKDIWVQEPESKDVPAVEITHTFWERNLPSVSGLLKIIGFSTSVTALGFVLYKYKLLPRS
[1]
  Km: 44 µM
[2]
  Km: 43 µM
[3]
  Km: 80 µM

B2: Amine oxidase [flavin-containing] B (Homo sapiens) (protein)
chain: MSNKCDVVVVGGGISGMAAAKLLHDSGLNVVVLEARDRVGGRTYTLRNQKVKYVDLGGSYVGPTQNRILRLAKELGLETYKVNEVERLIHHVKGKSYPFRGPFPPVWNPITYLDHNNFWRTMDDMGREIPSDAPWKAPLAEEWDNMTMKELLDKLCWTESAKQLATLFVNLCVTAETHEVSALWFLWYVKQCGGTTRIISTTNGGQERKFVGGSGQVSERIMDLLGDRVKLERPVIYIDQTRENVLVETLNHEMYEAKYVISAIPPTLGMKIHFNPPLPMMRNQMITRVPLGSVIKCIVYYKEPFWRKKDYCGTMIIDGEEAPVAYTLDDTKPEGNYAAIMGFILAHKARKLARLTKEERLKKLCELYAKVLGSLEALEPVHYEEKNWCEEQYSGGCYTTYFPPGILTQYGRVLRQPVDRIYFAGTETATHWSGYMEGAVEAGERAAREILHAMGKIPEDEIWQSEPESVDVPAQPITTTFLERHLPSVPGLLRLIGLTTIFSATALGFLAHKRGLLVRV
[4]
  Km: 12 µM
[5]
  Km: 50 µM
[6]
  Km: 18 µM
[7]
  Km: 401 µM

B3: Amine oxidase [copper-containing] 3 (Homo sapiens), Q16853 (protein)
chain: MNQKTILVLLILAVITIFALVCVLLVGRGGDGGEPSQLPHCPSVSPSAQPWTHPGQSQLFADLSREELTAVMRFLTQRLGPGLVDAAQARPSDNCVFSVELQLPPKAAALAHLDRGSPPPAREALAIVFFGRQPQPNVSELVVGPLPHPSYMRDVTVERHGGPLPYHRRPVLFQEYLDIDQMIFNRELPQASGLLHHCCFYKHRGRNLVTMTTAPRGLQSGDRATWFGLYYNISGAGFFLHHVGLELLVNHKALDPARWTIQKVFYQGRYYDSLAQLEAQFEAGLVNVVLIPDNGTGGSWSLKSPVPPGPAPPLQFYPQGPRFSVQGSRVASSLWTFSFGLGAFSGPRIFDVRFQGERLVYEISLQEALAIYGGNSPAAMTTRYVDGGFGMGKYTTPLTRGVDCPYLATYVDWHFLLESQAPKTIRDAFCVFEQNQGLPLRRHHSDLYSHYFGGLAETVLVVRSMSTLLNYDYVWDTVFHPSGAIEIRFYATGYISSAFLFGATGKYGNQVSEHTLGTVHTHSAHFKVDLDVAGLENWVWAEDMVFVPMAVPWSPEHQLQRLQVTRKLLEMEEQAAFLVGSATPRYLYLASNHSNKWGHPRGYRIQMLSFAGEPLPQNSSMARGFSWERYQLAVTQRKEEEPSSSSVFNQNDPWAPTVDFSDFINNETIAGKDLVAWVTAGFLHIPHAEDIPNTVTVGNGVGFFLRPYNFFDEDPSFYSADSIYFRGDQDAGACEVNPLACLPQAAACAPDLPAFSHGGFSHN
[8]
  Km: 9 µM
[9]
  Km: 5 µM
[10]
  Km: 11 µM
[11]
  Km: 1730 µM
[12]
  Km: 350 µM

Source: ChEMBL document CHEMBL3085760, “Novel polyamine analogues: from substrates towards potential inhibitors of monoamine oxidases” (Eur J Med Chem, 2013)
